# In patent US20160068860A1, “TRANSGENIC PLANTS” (CONSEJO SUPERIOR DE INVESTIGACIONES CIENTIFICAS (CSIC), priority 2013, published 2016):
# Substitutions are numbered along the chain they refer to. Names may count otherwise.
# B1: PYL4H82R V97A (AtPYL H82 and V97A) (receptor)
# chain: MLAVHRPSSAVSDGDSVQIPMMIASFQKRFPSLSRDSTAARFHTHEVGPNQCCSAVIQEISAPISTVWSVVRRFDNPQAYKRFLKSCSVIGGDGDNAGSLRQVHVVSGLPAASSTERLDILDDERHVISFSVVGGDHRLSNYRSVTTLHPSPISGTVVVESYVVDVPPGNTKEETCDFVDVIVRCNLQSLAKIAENTAAESKKKMSL
# notes: also called PYL4H82R (found combined with V97A)
# B2: PYL4A194T: AtPYL4 ABA receptor mutant polypeptide with A194T substitution (SEQ ID NO. 60; nucleic acid SEQ ID NO: 55); also over-expressed in plants (protein, listed as Arabidopsis thaliana)
# chain: B1 chain with R82H, A97V, A194T
# Experiments:
# [1] = system: Arabidopsis thaliana plants; experiment: Whole-rosette stomatal conductance and transpiration measurements; format: in vivo; details: basal conditions; for stomatal conductance (Gst) and transpiration versus non-transformed Col: OE plants
# Experimental: The Arabidopsis whole-rosette gas exchange measurement device, plant growth practice and custom written program to calculate transpiration and Gst for water vapour have been described previously (Kollist et al. 2007; Vahisalu et al., 2008). For gas-exchange experiments, 25-28-d-old plants (rosette area 6-18 cm2) were used. Until measurements, plants were grown in growth chambers (AR-66LX and AR-22L, Percival Scientific, IA, USA) at 12/12 photoperiod, 23/18° C. temperature, air relative humidity of 70-80% and 150 μmol m-2 s-1 light. During gas exchange measurements, temperature, air relatively humidity, photoperiod and light in the cuvettes were kept as similar as possible to the
# values in growth chambers. Photographs of plants were taken before and after the experiment and rosette leaf area was calculated using the NIH software ImageJ 1.37v. Leaf area values for the intermediary experimental period were calculated using linear regression between starting and final leaf area.
# [2] = system: PP2CA; experiment: Yeast two hybrid (Y2H) growth assay with PP2CA; format: cell-based, Arabidopsis; details: absence of ABA; growth on medium lacking His and Ade
# Experimental: We conducted error-prone PCR mutagenesis by amplification of the PYL4 open reading frame using the following primers: FPYL4Ncol, 5″-GCAGCAGCCATGGTTGCCG TTCACCGTCCTTCT and RPYL4EcoRIstop: […] TCT TCTTCTT, and the following conditions: 2 mM dGTP, dCTP and dTTP, 0.5 mM dATP, 12 mM MgCl2 and Taq polymerase. The PCR product was Ncol-EcoRI doubly digested, cloned into the pGBKT7 vector and DH10B cells were transformed by electroporation. Thus, we generated an allele library in E. coli of approximately 10,000 PYL4 mutant clones. […] The library was shuttled to yeast AH109 by co-transformation with pGAD7-PP2CA. Yeast transformants were pooled and clones able to grow in the absence of exogenous ABA in medium lacking histidine and adenine were selected. Yeast plasmids were extracted, sequenced and retransformed in yeast cells to recapitulate the phenotype. Protocols for yeast two hybrid assays were similar to those described previously (Saez et al., 2008).
# [3] = system: Arabidopsis thaliana plants; experiment: Drought stress under greenhouse conditions; format: in vivo; details: for survival after drought stress: OE lines, watering resumed at 19-d, scored at 23-d
# Experimental: Plants grown under greenhouse conditions (10 individuals per experiment, three independent experiments) were grown under normal watering conditions for 15 days and then subjected to drought stress by stopping irrigation during 20 days. Next, watering was resumed and survival rate was calculated after 3 days by counting the percentage of plants that had more than four green leaves. Photographs were taken at the start of the experiment (day 0), after 16 and 19 days of drought, and 3 days after rewatering. Shoot-growth and water-loss were measured as follows. Quantification of shoot-growth was performed at 2, 5, 7 and 9 d after stopping irrigation (day 0) by measuring the maximum rosette radius of the plants. Water-loss measurements were done in two leaves from each plant that were detached 11 d after the start of the experiment, next weighted, incubated in de-mineralized water for 3 h and weighed again. The difference in weight was considered as water loss and related to the initial fresh weight (μl H2O/g FW).
# [4] = system: Arabidopsis thaliana plants; experiment: Seedling establishment and early seedling growth of OE lines on ABA; format: in vivo; details: for ABA-mediated inhibition of seedling establishment: 0.25 or 0.5 μM ABA; for ABA-mediated inhibition of shoot growth (early seedling growth): 0.25-0.5 μM ABA
# Description: PYL4 or PYL4 mutants were cloned into pCR8/GW/TOPO entry vector (Invitrogen) and recombined by LR reaction into the gateway compatible ALLIGATOR2 vector (Bensmihen et al., 2004). This construct drives expression of PYL4 under control of the 35S CaMV promoter and introduces a triple HA epitope at the N-terminus of the protein. Selection of transgenic lines is based on the visualization of GFP in seeds, whose expression is driven by the specific seed promoter At2S3. The ALLIGATOR2-35S:3HA-PYL4 or mutant constructs were transferred to Agrobacterium tumefaciens C58C1 (pGV2260) (Deblaere et al., 1985) by electroporation and used to transform Columbia wild type plants by the floral dip method. T1 transgenic seeds were selected based on GFP visualization and sowed in soil to obtain the T2 generation. At least three independent transgenic lines were generated for each construct. Homozygous T3 progeny was used for further studies and expression of HA-tagged protein in 21-d-old seedlings was verified by immunoblot analysis using anti-HA-peroxidase (Roche).
# After surface sterilization of the seeds, stratification was conducted in the dark at 4° C. for 3 d. Approximately 100 seeds of each genotype were sowed on MS plates supplemented with different ABA concentrations per experiment. To score seed germination, radical emergence was analyzed at 72 h after sowing. Seedling establishment was scored as the percentage of seeds that developed green expanded cotyledons and the first pair of true leaves at 7-d.
# [5] = system: Arabidopsis thaliana plants; experiment: Dehydration treatment of seedlings in laminar flow hood; format: in vivo; details: OE plants; 15-d-old seedlings, 12 h of dehydration, scored 3-d afterwards
# Experimental: 2-weeks-old seedlings grown in MS plates were used for these experiments. Twenty seedlings per genotype (two independent experiments) were submitted to the drying atmosphere of a flow laminar hood for 12 hours (25° C.±1° C., 25%±2% relative humidity), then rehydrated with 25 ml of water. Survival percentage was scored 3 days after rehydration by counting the percentage of plants that had at least four green leaves.
Molecule,stomatal conductance (Gst) and transpiration versus non-transformed Col [1],interaction with PP2CA in Y2H assay [2],survival after drought stress [3],ABA-mediated inhibition of seedling establishment [4],survival after dehydration followed by rehydration [5],ABA-mediated inhibition of shoot growth (early seedling growth) [4],stomatal conductance (Gst) versus PYL4 OE plants [1],"plant growth (rosette radius) during drought ([3]; OE plants, subsequent 5-d after irrigation stopped)"
"PYL4: AtPYL4 wild type ABA receptor polypeptide (SEQ ID NO:3, At2g38310) [reference compound]",lower Gst and transpiration values than non-transformed Col plants,ABA-dependent manner,around 30%,enhanced ABA-mediated inhibition of seedling establishment compared to non-transformed plants,,,,
B1,,ABA-independent interaction with PP2CA,,higher sensitivity to ABA-mediated inhibition of seedling establishment than PYL4 OE plants,~25%,higher sensitivity to ABA-mediated inhibition of shoot growth than PYL4 OE plants,,
B2,lower Gst and transpiration values than non-transformed Col plants,enhanced the interaction of PYL4 and PP2CA in the absence of ABA,60-70%,higher sensitivity to ABA-mediated inhibition of seedling establishment than PYL4 OE plants,approximately 40%,higher sensitivity to ABA-mediated inhibition of shoot growth than PYL4 OE plants,lower Gst values than PYL4 OE plants,plant growth was reduced in non-transformed Col and PYL4 OE plants compared to PYL4A194T OE plants
